{"source": "patent US7807387B2", "about": "“Biological agent that causes IL-6 receptor release” (Meyer Pharmaceuticals LLC, priority 2003, dated 2010)", "molecules": {"B1": {"name": "MP8: polypeptide having the sequence of SEQ. ID NO:41 (usually with a HIS tag); cytokine receptor releasing protein expressed in E. coli (protein, listed as Homo sapiens)", "chain": "WIQRIRHEGNSTVYEWRTGTEPSVVERPHLEELPEQVAEDAIDWGDFGVEAVSEGTDSGISAEAAGIDWGIFPESDSKDPGGDGIDWGDDAVALQITVLEAGTQAPEGVARGPDALTLLEYTETRNQFLDELMELEIFLAQRAVELSEEADVLSVSQFQLAPAILQGQTKEKMVTMVSVLEDLIGKLTSLQLQHLFMILASPRYVDRVTEFLQQKLKQSQLLALKKELMVQKQQEALEEQAALEPKLDLLLEKTKELQKLIEADISKRYSGRPVNLMGTSL", "modifications": "HIS tag", "notes": "ID NO:41 (usually with a HIS tag); cytokine receptor releasing protein expressed in E. coli"}}, "key": {"IL-6 Receptor": {"target": "IL-6 Receptor (Homo sapiens, UniProt P08887)", "assay": "FRET peptide cleavage assay, IL-6 receptor peptide", "assay_type": "biochemical", "details": "Zn++ 0.1 mM, Ca++ 2 mM, corrected for EDTA, 37° C. for 3 hours", "procedure": "Cytokine-specific proteolytic activity can rapidly be quantified by Fluorescence Resonance Energy Transfer (FRET). Peptides having the amino acid sequence of the TNF Receptor or other protein substrates are labeled at opposite ends with a fluorescence emitter and a fluorescence quencher. The peptide is then incubated with a source of receptor cleaving enzyme, and fluorescence is measured. The quenching group normally absorbs fluorescence from the emitter. But enzymatic cleavage of the peptide decouples the quenching group, and fluorescence emission increases proportionally.\nThe peptides used as substrates in the cleavage assay were taken from the known sites of proteolytic cleavage of the whole protein. The peptides were labeled with the fluorescence emitter (Edans-●) at the C-terminal, and the quenching hapten (Dabcyl-▴) at the N-terminal.\nThe assay is conducted in the presence of the metal cations Zn^++ (0.1 mM) and Ca^++ (2 mM), and corrected for cleavage in the presence of EDTA (20 mM). Dependence on divalent cations confirms that the enzyme activity measured in this assay is a metalloprotease. The assay mixture also contains a cocktail of protease inhibitors and bovine albumin. Cleavage is measured as the net change in fluorescence emission after incubating the enzyme with the peptide at 37° C. for 3 hours. […]"}, "TNF receptor": {"system": "TNF receptor", "assay": "Cell surface cleavage assay, release of TNF receptor isoforms by enzyme immunoassay", "assay_type": "cell-based", "details": "25 μg protein with 2.5×10^6 cells; (treated—untreated)/untreated", "procedure": "To determine cell surface cleavage activity, 25 μg of MP8-FL2 was combined with 2.5×10^6 cells. Release of both TNF receptor isoforms was determined by enzyme immunoassay as (treated—untreated)/untreated."}, "[1]": {"assay": "Stability of receptor cleaving activity upon storage (FRET assay)", "assay_type": "physicochemical", "details": "a month of storage at 4° C. or −70° C., purified form", "procedure": "The stability of MP8 was determined by storing aliquots of MP8 at 4° C. or −70°. Aliquots were taken out periodically to determine enzyme cleaving activity in the fluorescence resonance energy transfer peptide cleavage assay."}, "[2]": {"system": "collagen-induced arthritis", "assay": "Collagen-induced arthritis, treatment of established disease", "assay_type": "in vivo", "procedure": "Collagen-induced arthritis is a standard model for evaluating potential therapeutic agents for rheumatoid arthritis (Courtenay et al., Nature 283:666, 1980; Williams et al., Proc Natl Acad Sci USA 89:9784, 1992; Gerlag et al., J Immunol 165:1652, 2000). Arthritis was induced in 7-9 week old female DBA/1 LacJ mice by immunization with collagen. On day 0, the mice were injected at the base of the tail with 100 μg bovine type II collagen in complete Freund's adjuvant. On day 7, mice were boosted with an intraperitoneal injection of 100 μg collagen. To enhance and synchronize synovitis, the mice were injected subcutaneously on day 14 with 100 μg of lipopolysaccharide (LPS). Joint swelling was monitored in a blinded fashion by measuring the diameter in all 4 paws and both ankles using a constant pressure gauge. Arthritis Index was also determined on the following scale, and summed for all extremities. 0≡normal; 1≡one digit swollen; 2≡more than one digit swollen; 3≡joint distortion; 4≡ankylosis. The arthritis experiments were conducted under contract by Calvert Preclinical Services, Inc., Olyphant Pa.\nMice were immunized with collagen on days 0, and 7, and then boosted with LPS on day 14. Treatment with MP8 was initiated on day 22 when arthritis was well established. At that time, animals with arthritis were randomized into three groups, and unaffected animals were excluded. The three affected groups were then treated for 18 consecutive days with saline control, or with MP8 at either of two different doses."}, "[3]": {"system": "Experimental Autoimmune Encephalomyelitis", "assay": "Experimental Autoimmune Encephalomyelitis (EAE)", "assay_type": "in vivo, SJL/J mice", "details": "for Day of Onset (±SEM): p < 0.001; for Peak Clinical Score (±SEM): scale 0-5", "procedure": "The EAE model (Brown et al., Lab. Invest. 45:278, 1981) was conducted as follows. Female SJL/J mice (6 weeks old) were randomized into 3 groups of 10. 2 mL of Myelin Proteolipid Peptide (PLP) was emulsified in 3 mL of Complete Freund's Adjuvant containing an additional 20 mg of M. tuberculosis H37Ra. On day 0, mice were immunized subcutaneously in the base of the tail and footpad with a total of 60 μg PLP. They were also given […] pertussis toxin i.p. on days 0 and 2. MP8 or saline control was administered s.c. every day from day −3 to day 20. Progression of the disease was measured up to day 21 on the following scale: 0≡normal; 1≡limp tail or hind limb weakness; 2≡both limp tail and hind limb weakness; 3≡partial hind limb paralysis; 4≡complete hind limb paralysis; 5≡moribund or sacrificed."}, "[4]": {"system": "experimentally induced Asthma", "assay": "Experimentally induced asthma (ovalbumin sensitization and aerosol challenge)", "assay_type": "in vivo, mice", "details": "treatment 1 h before aerosol challenge, 24 h and 48 h afterwards; lavage at 72 h", "procedure": "Mice were sensitized on Days 0, 7, and 14 with 10 μg ovalbumin in 1% aluminum hydroxide. On Day 21, the mice were challenged with the allergen in aerosol form (5% wt/vol in saline). Treatment with MP8 or control was administered 1 h before the aerosol challenge, and 24 h and 48 h afterwards. On Day 24 (72 h after the challenge), lungs were ravaged under anesthesia with 2×0.5 mL buffer to recover cells in the alveolar fluid."}, "[5]": {"details": "100,000 FU s.c. every day from day −3 to day 20"}, "[6]": {"details": "300,000 FU s.c. every day from day −3 to day 20"}}, "note": "Marks after values point to notes of the source that are not given here."}
{"molecule": "B1", "values": [{"measurement": "cleavage of IL-6 receptor peptide", "setting": "IL-6 Receptor", "result": "high activity"}, {"measurement": "cleavage and release of TNF receptor from the cell surface", "setting": "TNF receptor", "result": "cause cleavage and release of TNF receptor, with preference for the R1 (p55) isoform"}, {"measurement": "loss of peptide cleaving activity on storage", "setting": "[1]", "result": "no detectable loss of activity"}, {"measurement": "toxicity", "setting": "[2]; MP8 treated groups", "result": "No toxicity was detected"}, {"measurement": "swelling in the affected joints", "setting": "[2]; daily for 18 days from day 22, two doses, p<0.001 vs control", "result": "highly significant reduction in swelling"}, {"measurement": "severity of inflammatory synovitis by histopathology", "setting": "[2]; higher dose, end of experiment", "result": "lower severity of inflammatory synovitis"}, {"measurement": "level of antibodies to type II collagen in serum", "setting": "[2]; low or high dose, ELISA, p<0.02", "result": "almost half the control"}, {"measurement": "Incidence of Disease", "setting": "[3]; [5]", "result": "5 out of 7"}, {"measurement": "Day of Onset (±SEM)", "setting": "[3]; [5]", "result": "18.0 ± 0.8 ^a"}, {"measurement": "Peak Clinical Score (±SEM)", "setting": "[3]; [5]", "result": "2.4 ± 0.7"}, {"measurement": "Incidence of Disease", "setting": "[3]; [6]", "result": "3 out of 7"}, {"measurement": "Day of Onset (±SEM)", "setting": "[3]; [6]", "result": "18.0 ± 2.5 ^a"}, {"measurement": "Peak Clinical Score (±SEM)", "setting": "[3]; 300,000 FU s.c. every day from day −3 to day 20, p < 0.01", "result": "1.0 ± 0.5 ^b"}, {"measurement": "emergence of symptoms", "setting": "[3]; delayed from 12 days", "result": 18, "unit": "days"}, {"measurement": "weight gain of treated animals", "setting": "[3]; mouse, in vivo", "result": "continued to show normal weight gain"}, {"measurement": "proportion of eosinophils", "setting": "[4]", "result": "substantially reduced"}, {"measurement": "white blood cells migrating into the alveolar fluid", "setting": "[4]", "result": "reduced the number of the white blood cells migrating into the alveolar fluid"}]}
